Test: melting temperature; melt of duplexes
Conditions: sodium 0.0675 M; strand 1 µM

Going from “CGACGTGCCAAATGTGCTG+CAGCACATAATGCACGTCG ((((((((...((((((((+))))))))...))))))))” to “CGACGTGCAGTATGTGCTG+CAGCACATGGAGCACGTCG ((((((((...((((((((+))))))))...))))))))”, the Tm rises from 48.2 °C to 50.6 °C.

Going from “CGACGTGCGTTATGTGCTG+CAGCACATCGTGCACGTCG ((((((((...((((((((+))))))))...))))))))” to “CGACGTGCTATATGTGCTG+CAGCACATAAGGCACGTCG ((((((((..(((((((((+)))))))))..))))))))”, the Tm rises from 44 °C to 52.5 °C.

First: CGACGTGCGTGATGTGCTG+CAGCACATTTAGCACGTCG ((((((((...((((((((+))))))))...))))))))
Second: CGACGTGCTAAATGTGCTG+CAGCACATGCTGCACGTCG ((((((((...((((((((+))))))))...))))))))
The Tm of the first is higher: 53.6 °C for the first, 50.1 °C for the second.

Compared with “CGACGTGCTGGATGTGCTG+CAGCACATTCTGCACGTCG ((((((((.(.((((((((+)))))))).).))))))))”, “CGACGTGCGGGATGTGCTG+CAGCACATTCAGCACGTCG ((((((((.(.((((((((+)))))))).).))))))))” is higher in Tm: 55.6 °C for the first, 56.4 °C for the second.

First: CGACGTGCTACATGTGCTG+CAGCACATCGAGCACGTCG (((((((((..((((((((+))))))))..)))))))))
Second: CGACGTGCTTAATGTGCTG+CAGCACATCCGGCACGTCG ((((((((...((((((((+))))))))...))))))))
The Tm of the first is higher: 51.6 °C for the first, 49 °C for the second.

First: CGACGTGCTCTATGTGCTG+CAGCACATTTGGCACGTCG ((((((((...((((((((+))))))))...))))))))
Second: CGACGTGCTTTATGTGCTG+CAGCACATAAAGCACGTCG (((((((((((((((((((+)))))))))))))))))))
The Tm of the first is lower: 50.1 °C for the first, 61 °C for the second.

Going from “CGACGTGCTAGATGTGCTG+CAGCACATCTAGCACGTCG (((((((((((((((((((+)))))))))))))))))))” to “CGACGTGCAGTATGTGCTG+CAGCACATTGTGCACGTCG (((((((((..((((((((+))))))))..)))))))))”, the Tm falls from 63.6 °C to 48.6 °C.

First: CGACGTGCTGTATGTGCTG+CAGCACATCAGGCACGTCG ((((((((...((((((((+))))))))...))))))))
Second: CGACGTGCTAAATGTGCTG+CAGCACATTAGGCACGTCG ((((((((..(((((((((+)))))))))..))))))))
The Tm of the first is lower: 51.7 °C for the first, 53.8 °C for the second.

First: CGACGTGCCTGATGTGCTG+CAGCACATCCTGCACGTCG ((((((((..(((((((((+)))))))))..))))))))
Second: CGACGTGCAGTATGTGCTG+CAGCACATTGAGCACGTCG ((((((((...((((((((+))))))))...))))))))
The Tm of the first is higher: 53.1 °C for the first, 49.1 °C for the second.

First: CGACGTGCCCCATGTGCTG+CAGCACATATTGCACGTCG ((((((((...((((((((+))))))))...))))))))
Second: CGACGTGCTCCATGTGCTG+CAGCACATTTCGCACGTCG ((((((((...((((((((+))))))))...))))))))
The Tm of the first is higher: 46.1 °C for the first, 45.7 °C for the second.

Going from “CGACGTGCGAAATGTGCTG+CAGCACATAGTGCACGTCG ((((((((...((((((((+))))))))...))))))))” to “CGACGTGCGCCATGTGCTG+CAGCACATAAAGCACGTCG ((((((((...((((((((+))))))))...))))))))”, the Tm rises from 46 °C to 53.6 °C.

First: CGACGTGCTTTATGTGCTG+CAGCACATGAGGCACGTCG ((((((((.(.((((((((+)))))))).).))))))))
Second: CGACGTGCATTATGTGCTG+CAGCACATGCAGCACGTCG ((((((((...((((((((+))))))))...))))))))
The Tm of the first is higher: 52.8 °C for the first, 48.7 °C for the second.

First: CGACGTGCGGAATGTGCTG+CAGCACATGCCGCACGTCG ((((((((((.((((((((+)))))))).))))))))))
Second: CGACGTGCGTTATGTGCTG+CAGCACATATAGCACGTCG ((((((((..(((((((((+)))))))))..))))))))
The Tm of the first is higher: 62.1 °C for the first, 54.5 °C for the second.

Compared with “CGACGTGCCCCATGTGCTG+CAGCACATGGGGCACGTCG (((((((((((((((((((+)))))))))))))))))))”, “CGACGTGCATGATGTGCTG+CAGCACATTACGCACGTCG ((((((((.(.((((((((+)))))))).).))))))))” is lower in Tm: 67.7 °C for the first, 50.6 °C for the second.

Compared with “CGACGTGCAAAATGTGCTG+CAGCACATAGGGCACGTCG ((((((((...((((((((+))))))))...))))))))”, “CGACGTGCCCTATGTGCTG+CAGCACATTTGGCACGTCG (((((((((..((((((((+))))))))..)))))))))” is higher in Tm: 48.7 °C for the first, 54.1 °C for the second.

Going from “CGACGTGCCAAATGTGCTG+CAGCACATTGAGCACGTCG ((((((((..(((((((((+)))))))))..))))))))” to “CGACGTGCCTAATGTGCTG+CAGCACATCGTGCACGTCG ((((((((...((((((((+))))))))...))))))))”, the Tm falls from 53.9 °C to 43.1 °C.

Going from “CGACGTGCAGCATGTGCTG+CAGCACATTCCGCACGTCG ((((((((.(.((((((((+)))))))).).))))))))” to “CGACGTGCGTAATGTGCTG+CAGCACATCAAGCACGTCG ((((((((.(.((((((((+)))))))).).))))))))”, the Tm rises from 46.4 °C to 53.4 °C.

First: CGACGTGCGCAATGTGCTG+CAGCACATTCAGCACGTCG ((((((((..(((((((((+)))))))))..))))))))
Second: CGACGTGCTCTATGTGCTG+CAGCACATAATGCACGTCG ((((((((..(((((((((+)))))))))..))))))))
The Tm of the first is higher: 53.1 °C for the first, 50.4 °C for the second.

First: CGACGTGCGACATGTGCTG+CAGCACATGGCGCACGTCG (((((((((.(((((((((+))))))))).)))))))))
Second: CGACGTGCTAAATGTGCTG+CAGCACATGACGCACGTCG ((((((((...((((((((+))))))))...))))))))
The Tm of the first is higher: 65.2 °C for the first, 50.2 °C for the second.

Going from “CGACGTGCCCCATGTGCTG+CAGCACATGGTGCACGTCG ((((((((.((((((((((+)))))))))).))))))))” to “CGACGTGCTTAATGTGCTG+CAGCACATTTAGCACGTCG (((((((((.(((((((((+))))))))).)))))))))”, the Tm falls from 56.7 °C to 55.5 °C.

First: CGACGTGCTATATGTGCTG+CAGCACATTCAGCACGTCG (((((((((..((((((((+))))))))..)))))))))
Second: CGACGTGCACTATGTGCTG+CAGCACATAATGCACGTCG (((((((((.(((((((((+))))))))).)))))))))
The Tm of the first is lower: 51 °C for the first, 51.2 °C for the second.

First: CGACGTGCCGTATGTGCTG+CAGCACATTCGGCACGTCG ((((((((((.((((((((+)))))))).))))))))))
Second: CGACGTGCAGGATGTGCTG+CAGCACATGGGGCACGTCG ((((((((...((((((((+))))))))...))))))))
The Tm of the first is higher: 59.9 °C for the first, 50.4 °C for the second.

Compared with “CGACGTGCAGTATGTGCTG+CAGCACATGAGGCACGTCG ((((((((...((((((((+))))))))...))))))))”, “CGACGTGCTCTATGTGCTG+CAGCACATTCCGCACGTCG ((((((((...((((((((+))))))))...))))))))” is lower in Tm: 51.4 °C for the first, 46.7 °C for the second.

Compared with “CGACGTGCAGGATGTGCTG+CAGCACATCCGGCACGTCG ((((((((.((((((((((+)))))))))).))))))))”, “CGACGTGCATAATGTGCTG+CAGCACATATCGCACGTCG ((((((((...((((((((+))))))))...))))))))” is lower in Tm: 62.2 °C for the first, 48.6 °C for the second.

Going from “CGACGTGCTGTATGTGCTG+CAGCACATGTTGCACGTCG ((((((((...((((((((+))))))))...))))))))” to “CGACGTGCGCAATGTGCTG+CAGCACATGTTGCACGTCG ((((((((...((((((((+))))))))...))))))))”, the Tm rises from 50.4 °C to 51.5 °C.

First: CGACGTGCGGAATGTGCTG+CAGCACATTTTGCACGTCG ((((((((..(((((((((+)))))))))..))))))))
Second: CGACGTGCGGCATGTGCTG+CAGCACATCAGGCACGTCG ((((((((...((((((((+))))))))...))))))))
The Tm of the first is higher: 55.2 °C for the first, 51 °C for the second.

— the array DNA melting data of Ke et al.
